The text below walks through data of publication PMC8046669, “Structural basis of nucleosome transcription mediated by Chd1 and FACT” (Nature Structural & Molecular Biology, 2021).

For the assay, the target named is T1, S. cerevisiae FACT (heterodimer of Spt16 and Pob3) (S. cerevisiae, UniProt P32558 1-1035; Q04636 1-552).
T1 construct: Spt16, subunit of FACT, S. cerevisiae; Pob3, subunit of FACT, S. cerevisiae
Nature of the assay: SEC; size exclusion chromatography runs of Chd1 constructs with FACT, fractions analysed by SDS-PAGE. The settings on record: both partners purified.

T1 sequence (P32558 whole entry, chain 1 of 2): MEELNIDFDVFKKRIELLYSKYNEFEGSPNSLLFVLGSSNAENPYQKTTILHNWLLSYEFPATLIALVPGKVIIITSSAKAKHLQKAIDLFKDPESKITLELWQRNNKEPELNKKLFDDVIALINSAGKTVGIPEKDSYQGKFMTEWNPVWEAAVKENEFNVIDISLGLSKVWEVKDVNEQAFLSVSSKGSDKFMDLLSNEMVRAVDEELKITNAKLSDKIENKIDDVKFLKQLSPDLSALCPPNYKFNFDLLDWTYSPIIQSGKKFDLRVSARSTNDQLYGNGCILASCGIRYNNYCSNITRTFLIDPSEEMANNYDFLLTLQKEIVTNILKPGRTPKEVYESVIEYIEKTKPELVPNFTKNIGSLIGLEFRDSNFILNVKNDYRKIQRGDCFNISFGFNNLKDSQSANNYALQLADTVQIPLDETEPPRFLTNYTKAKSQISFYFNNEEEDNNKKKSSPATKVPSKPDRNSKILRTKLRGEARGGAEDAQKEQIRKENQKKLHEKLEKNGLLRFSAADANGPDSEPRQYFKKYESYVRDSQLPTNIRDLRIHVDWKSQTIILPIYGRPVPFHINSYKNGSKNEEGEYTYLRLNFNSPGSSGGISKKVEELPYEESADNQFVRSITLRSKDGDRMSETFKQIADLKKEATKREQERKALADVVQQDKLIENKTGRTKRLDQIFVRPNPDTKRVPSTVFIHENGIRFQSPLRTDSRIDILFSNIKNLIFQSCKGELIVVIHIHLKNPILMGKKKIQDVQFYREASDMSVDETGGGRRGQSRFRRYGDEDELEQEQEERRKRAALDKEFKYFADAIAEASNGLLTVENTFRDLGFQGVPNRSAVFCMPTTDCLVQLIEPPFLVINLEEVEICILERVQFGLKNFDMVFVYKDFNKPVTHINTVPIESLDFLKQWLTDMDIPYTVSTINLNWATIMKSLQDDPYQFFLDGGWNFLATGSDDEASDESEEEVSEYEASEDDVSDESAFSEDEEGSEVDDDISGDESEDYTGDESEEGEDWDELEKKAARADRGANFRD
T1 sequence (Q04636 whole entry, chain 2 of 2): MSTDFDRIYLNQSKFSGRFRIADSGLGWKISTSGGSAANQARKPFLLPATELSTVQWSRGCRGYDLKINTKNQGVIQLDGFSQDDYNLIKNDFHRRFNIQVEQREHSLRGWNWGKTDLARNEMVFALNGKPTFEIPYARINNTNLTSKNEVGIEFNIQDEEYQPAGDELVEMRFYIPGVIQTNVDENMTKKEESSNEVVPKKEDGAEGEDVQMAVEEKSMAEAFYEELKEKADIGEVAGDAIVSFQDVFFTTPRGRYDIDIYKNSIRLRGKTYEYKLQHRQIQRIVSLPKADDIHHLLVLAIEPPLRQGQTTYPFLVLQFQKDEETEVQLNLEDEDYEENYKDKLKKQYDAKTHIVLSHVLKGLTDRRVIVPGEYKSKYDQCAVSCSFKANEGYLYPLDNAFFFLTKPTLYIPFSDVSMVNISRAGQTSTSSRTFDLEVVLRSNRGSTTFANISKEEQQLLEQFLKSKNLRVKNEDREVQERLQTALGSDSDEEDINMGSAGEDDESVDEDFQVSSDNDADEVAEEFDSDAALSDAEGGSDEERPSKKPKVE

B1: S. cerevisiae Chd1 (enzyme)
chain: not shown
notes: Chd1, S. cerevisiae, chromatin remodeler; 1468 residues by the printed limits of the truncations; also called full-length Chd1
Take B1: the binding result is listed as “binds”.
